Fold change and other: suppressed fold change data for 12 substances are collected here from publication PMC5849716.

The target in the experiment is 14-3-3τ (UniProt P27348). Description: split luciferase kinase inhibitor screen. The settings on record: reference: DMSO-treated; sites S127.
Regarding “YAP (YAP1) 120-134 (from UniProt P46937) API-2 (PKB), 10 μM 4 h”, the fold change turned out to be 10.6.
Same read-out and setting: the value for “YAP (YAP1) 120-134 (from UniProt P46937) BIO (GSKa/b), 10 μM 4 h” was 14.4.
In the case of “YAP (YAP1) 120-134 (from UniProt P46937) CGK 733 (ATM/ATR), 10 μM 4 h”, the other: suppressed fold change was determined as 1.85.
On the same count and under the same terms, with “YAP (YAP1) 120-134 (from UniProt P46937) ER 27319 (SYK), 10 μM 4 h” the figure was 3.71; with “YAP (YAP1) 120-134 (from UniProt P46937) GSK650394 (SGK), 10 μM 4 h”, 1.73.
As to “YAP (YAP1) 120-134 (from UniProt P46937) Genistein (EGFR), 10 μM 4 h”, the fold change amounted to 6.12.
Regarding “YAP (YAP1) 120-134 (from UniProt P46937) PD 98059 (MEK), 10 μM 4 h”, the fold change amounted to 16.9.
“YAP (YAP1) 120-134 (from UniProt P46937) PD 407824 (CHK1), 10 μM 4 h” showed an other: suppressed fold change of 1.73.
Consider “YAP (YAP1) 120-134 (from UniProt P46937) Ro 08-2750 (TrkA), 10 μM 4 h”, for which the other: suppressed fold change was 6.51.
Still for that read-out and setting: the value for “YAP (YAP1) 120-134 (from UniProt P46937) Ro 31-8220 (General), 10 μM 4 h” was 5.21.
For the substance “YAP (YAP1) 120-134 (from UniProt P46937) Ryuvidine (CDK4), 10 μM 4 h”, the fold change turned out to be 5.88.
The same measure, in the same setting: the value for “YAP (YAP1) 120-134 (from UniProt P46937) SU 4312 (VEGFR1/2), 10 μM 4 h” was 27.9.
